The values below come from PMC7465815, “The CARF Protein MM_0565 Affects Transcription of the Casposon-Encoded cas1-solo Gene in Methanosarcina mazei Gö1” (Biomolecules, 2020).

For data set [1], the target named is T1, His6-MM_0565 (CARF-wHTH protein) (Methanosarcina mazei Gö1) (UniProt Q8PZC9).
T1 sequence: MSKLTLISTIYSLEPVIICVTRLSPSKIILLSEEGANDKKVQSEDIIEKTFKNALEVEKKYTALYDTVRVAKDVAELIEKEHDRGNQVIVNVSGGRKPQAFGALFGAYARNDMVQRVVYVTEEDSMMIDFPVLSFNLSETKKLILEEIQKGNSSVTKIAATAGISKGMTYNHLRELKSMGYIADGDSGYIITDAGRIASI
Put plainly: EMSA. The conditions noted are these: MST: 25 nM labelled protein in His-tag buffer (250 mM NaH2PO4, 1.5 M NaCl, pH 8) + 1 mg/mL BSA, 0.05% Tween20, DNA from annealing buffer (50 mM TES/KOH pH 7.6 …).

The target of data set [2] is T1, His6-MM_0565 (CARF-wHTH protein) (Methanosarcina mazei Gö1). Put plainly: competition. The note with it: MST: 25 nM labelled protein in His-tag buffer (250 mM NaH2PO4, 1.5 M NaCl, pH 8) + 1 mg/mL BSA, 0.05% Tween20, DNA from annealing buffer (50 mM TES/KOH pH 7.6 …).
In data set [3] the target is T2, His6-MM_0565 (CARF-wHTH protein) (Methanosarcina mazei Gö1, UniProt Q8PZC9 1-200).
T2 sequence: T1 sequence
Put plainly: MST; MST: 25 nM labelled protein in His-tag buffer (250 mM NaH2PO4, 1.5 M NaCl, pH 8) + 1 mg/mL BSA, 0.05% Tween20, DNA from annealing buffer (50 mM TES/KOH pH 7.6). The conditions noted are these: protein: recombinant, tags: N-terminal His6 (pET28a), chain copies: 2.

Data set [4] deals with the molecule itself. Put plainly: SEC; purified His6-MM_0565 on an ENrich SEC 650 column; 50 mM TES buffer pH 7.6, 300 mM KCl; 0.5 mL/min; calibrated with a gel-filtration mass standard. In general terms: In gel filtration, larger molecules generally elute earlier.
Data set [5] concerns the molecule itself. Description: SDS-PAGE and Western blot of cell extracts (dimer band kept under denaturing conditions); M. mazei cell extracts (750 µg), cells grown under standard conditions (38.5 mM NaCl) or with 500 mM NaCl; samples boiled 5 min at 95 °C, 12% SDS-PAGE; polyclonal antibodies against MM_0565. For orientation: In western blotting, separated proteins are transferred to a membrane and probed.

On to “AGGGCAAAAATTTCCGTTATTTGGTCAGAAAAGGCCTGAAATGAGCCCTTTTTTGGGGCTAAAATTCTTGCTGGAAAATTATCAAACCCTTTATAAATACAAGAAAAAAAGGGTTTTTTTAGTGGTTTGGAAAC (double strand) [leader III-C PCR fragment]”, for which the binding result in data set [1] is “binds”.

Take “AGGGCAAAAATTTCCGTTATTTGGCCAGAAAAGGCCTGAAATGAGCCCTTTTTCAGGGCTAAAATTCTTGCTGGAAAATTATCAAACCCTTTATAAATACAAGAAAAACTTCTCATACGCAGATATTCCGGTAACAGCAATCTACGCATTTTCT (double strand) [leader I-B PCR fragment]”: the binding entry in data set [2] and in data set [1] was “binds” throughout.

B1: cas8b promoter (CRISPR-Cas I-B operon) (dsDNA)
DNA 1: TCTATTTGCTTATTTTTATAATTATTTTTAGAAATGTATATATAATATGTTAACTATGAACCTTGATGGT
DNA 2: ACCATCAAGGTTCATAGTTAACATATTATATATACATTTCTAAAAATAATTATAAAAATAAGCAAATAGA
As for B1, the binding result in data set [3] (blunt) is on record as “no binding”.

B2: conserved leader region 1 (5' fragment, 70 nt) (dsDNA)
DNA 1: TTTTTCTTGTATTTATAAAGGGTTTGATAATTTTCCAGCAAGAATTTTAGCCCCAAAAAAGGGCTCATTT
DNA 2: AAATGAGCCCTTTTTTGGGGCTAAAATTCTTGCTGGAAAATTATCAAACCCTTTATAAATACAAGAAAAA
By Kd is commonly meant the concentration at which binding is half-saturated. In the case of B2, in data set [3] (blunt), the Kd came out at 960 ± 350 nM.

B3: MM_3250 (cas1-solo operon) promoter (dsDNA)
DNA 1: CCGCTCTTACTTATGTACAGAATTGAGTATAACTTTAAGTATAAGTTTGATGTATATTTTGTATATAATT
DNA 2: AATTATATACAAAATATACATCAAACTTATACTTAAAGTTATACTCAATTCTGTACATAAGTAAGAGCGG
On to B3, for which, in data set [3] (blunt), the equilibrium dissociation constant (Kd) was found to be 1600 ± 400 nM.

B4: MM_0565 promoter version 1 (wt) (dsDNA)
DNA 1: AACTAAATCCCTATATCGTAAAACATTTAACCAAACCCTACAATACATGACATCTAATGT
DNA 2: ACATTAGATGTCATGTATTGTAGGGTTTGGTTAAATGTTTTACGATATAGGGATTTAGTT
Take B4: the Kd in data set [3] (blunt) was 285 ± 56 nM.

B5: His6-MM_0565 (CARF protein MM_0565 of Methanosarcina mazei Gö1 with N-terminal His6 tag) (natural protein, UniProt Q8PZC9 1-200, looked up)
chain: T1 sequence
notes: MM_0565 gene product of Methanosarcina mazei Gö1; N-terminal CARF domain and C-terminal winged helix-turn-helix domain; gene PCR-amplified (0.6 kbp fragment) and cloned into pET28a(+); approximately 22 kDa; Homodimer by size-exclusion chromatography; also called purified MM_0565; His6-tagged MM_0565; source: E. coli BL21-CodonPlus-RIL (plasmid pRS923, pET28a), purified (Ni-NTA agarose); not …
For orientation: stoichiometry N means a count of units in the complex or per binding partner. On to B5, for which, in data set [4], the “stoichiometry N” value was 2.

B6: MM_0565, endogenous in Methanosarcina mazei Gö1 (natural protein, UniProt Q8PZC9 1-200, looked up)
chain: T1 sequence
notes: MM_0565 gene product of Methanosarcina mazei Gö1, detected in cell extracts with polyclonal antibodies against MM_0565 as bands of 25 and 50 kDa; Both a monomer band and a dimer band were seen on the denaturing gel; also called dimeric MM_0565; source: endogenous, M. mazei Gö1 cell extracts
As to B6, the “stoichiometry N” value in data set [5] is 2.

B7: conserved leader region 2 (3' fragment) (dsDNA)
DNA 1: CAAGAATTTTAGCCCTGAAAAAGGGCTCATTTCAGGCCTTTTCTGGCCAAATAACGGAAATTTTTGCCCT
DNA 2: AGGGCAAAAATTTCCGTTATTTGGCCAGAAAAGGCCTGAAATGAGCCCTTTTTCAGGGCTAAAATTCTTG
As to B7, in data set [3], the binding result was “no binding”.
